Blank lines part the entries; values can stand above or below the molecule they belong to. Positions of bridges follow the written chain, without caps; N, C: chain ends. Non-standard residues stand in square brackets, D forms with d. No end group written: not given here.
How the values were obtained:
[1] = target: rat LDLR on rat brain capillary endothelial cells (RBCEC) (rat) (UniProt P35952); test: cell-based or functional assay
[2] = target: mouse LDLR in tissues of wild-type mice (mouse, UniProt P35951 22-862); test: cell-based or functional assay
[3] = target: T1, human low-density lipoprotein receptor fused with RFP, on CHO-hLDLR-RFP cells (human, UniProt P01130 22-860); test: competition on CHO-hLDLR-RFP cells: 10 uM test peptide against 10 uM SEQ ID NO: 17/STag, STag read by FRET
T1 construct: whole, on cells; also called human LDLR; not shown: red fluorescent protein (RFP) fused at the C-term (intracellular end)

Sequence of mouse LDLR in tissues of wild-type mice (P35951 22-862): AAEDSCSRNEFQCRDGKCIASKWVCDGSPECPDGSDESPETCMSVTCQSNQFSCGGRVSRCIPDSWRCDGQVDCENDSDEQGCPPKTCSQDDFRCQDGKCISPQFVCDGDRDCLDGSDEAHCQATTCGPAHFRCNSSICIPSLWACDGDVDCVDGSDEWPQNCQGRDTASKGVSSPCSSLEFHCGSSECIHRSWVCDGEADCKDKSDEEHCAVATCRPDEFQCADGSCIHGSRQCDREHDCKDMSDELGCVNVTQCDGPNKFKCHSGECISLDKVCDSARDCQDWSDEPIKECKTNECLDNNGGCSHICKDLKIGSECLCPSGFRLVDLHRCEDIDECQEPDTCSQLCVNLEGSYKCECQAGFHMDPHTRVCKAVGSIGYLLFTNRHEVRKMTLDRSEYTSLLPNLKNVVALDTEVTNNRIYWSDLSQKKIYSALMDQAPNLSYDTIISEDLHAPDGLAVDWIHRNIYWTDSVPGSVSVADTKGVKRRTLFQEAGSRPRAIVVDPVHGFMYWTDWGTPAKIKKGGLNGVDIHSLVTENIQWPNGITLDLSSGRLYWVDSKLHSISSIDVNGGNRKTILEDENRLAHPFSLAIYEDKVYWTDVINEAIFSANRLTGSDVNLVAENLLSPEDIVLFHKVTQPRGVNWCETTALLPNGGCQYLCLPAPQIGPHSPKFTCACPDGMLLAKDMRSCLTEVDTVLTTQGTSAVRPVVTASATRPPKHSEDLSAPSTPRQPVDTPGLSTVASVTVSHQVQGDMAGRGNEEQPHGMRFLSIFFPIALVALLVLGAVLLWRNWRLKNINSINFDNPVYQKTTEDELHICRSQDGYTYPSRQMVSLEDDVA
Sequence of rat LDLR on rat brain capillary endothelial cells (RBCEC) (rat) (P35952 22-879): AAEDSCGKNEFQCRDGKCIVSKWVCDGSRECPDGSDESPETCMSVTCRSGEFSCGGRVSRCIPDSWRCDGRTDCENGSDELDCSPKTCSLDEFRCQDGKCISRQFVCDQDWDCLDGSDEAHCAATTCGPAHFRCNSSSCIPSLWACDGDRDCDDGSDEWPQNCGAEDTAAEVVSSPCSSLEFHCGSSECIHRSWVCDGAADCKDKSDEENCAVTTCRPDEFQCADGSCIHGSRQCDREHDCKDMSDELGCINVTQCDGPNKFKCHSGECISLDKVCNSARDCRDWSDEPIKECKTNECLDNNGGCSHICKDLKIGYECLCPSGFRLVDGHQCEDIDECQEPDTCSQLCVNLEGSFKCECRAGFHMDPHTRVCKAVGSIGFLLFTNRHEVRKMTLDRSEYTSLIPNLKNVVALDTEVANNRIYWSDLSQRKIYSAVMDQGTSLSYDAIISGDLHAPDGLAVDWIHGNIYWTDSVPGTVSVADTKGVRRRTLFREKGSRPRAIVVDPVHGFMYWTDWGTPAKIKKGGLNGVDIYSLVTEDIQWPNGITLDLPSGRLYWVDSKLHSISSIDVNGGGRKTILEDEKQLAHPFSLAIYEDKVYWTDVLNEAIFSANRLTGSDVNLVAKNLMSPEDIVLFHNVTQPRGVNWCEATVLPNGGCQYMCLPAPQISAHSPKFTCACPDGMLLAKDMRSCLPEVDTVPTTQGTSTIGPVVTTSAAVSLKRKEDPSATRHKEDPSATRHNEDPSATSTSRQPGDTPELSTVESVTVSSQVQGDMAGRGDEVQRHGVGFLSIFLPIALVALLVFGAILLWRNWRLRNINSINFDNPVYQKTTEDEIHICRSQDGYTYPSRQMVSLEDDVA

saturation of the transport into the lower compartment of the in-vitro BBB model (WT) (µg per insert) [1]: 4
Molecule: LDL made fluorescent by adsorption of DiI (ligand)

peptide concentration in the adrenal glands, LDLR-KO mice compared to wild-type mice, 10 min after intravenous injection [2]: ~2 fold decrease
peptide concentration in the intestine, LDLR-KO mice compared to wild-type mice, 10 min after intravenous injection [2]: ~6 fold decrease
peptide concentration in the liver, LDLR-KO mice compared to wild-type mice, 10 min after intravenous injection [2]: ~5 fold decrease
B1: peptide SEQ ID NO: 5 radiolabelled using tritium (peptide)
peptide: XMXRLRGC
modifications: (D)-pen at 1; Thz at 3; tritiated, by the method of Example IX a tritiated propionyl group on the N-term amine

Displacement of the control peptide [3]: 54%
B2: peptide SEQ ID NO: 10 (peptide)
peptide: [dC]MPRLR[dA]C
modifications: disulfide 1-8 (inferred)
notes: also called (D)-cys-Met-Pro-Arg-Leu-Arg-(D)-ala-Cys

— patent US20130108548A1 (VECT HORUS, published 2013)
